Measured values taken from US20120328625A1 (AstraZeneca / MedImmune, published 2012).

Columns and labels:
[1] = target: T1, full length human Shh expressed on the cell surface (human, UniProt Q15465 24-462); experiment: cell-based or functional assay
[2] = target: T2, Shh-N in conditioned medium (human, UniProt Q15465 24-197, N-terminal palmitoyl modification; lacks the C-terminal cholesterol moiety); experiment: cell-based or functional assay
[3] = target: T1, full length human Shh expressed on the …; experiment: cell-based or functional assay; remark: listed apart in the source
[4] = target: T2, Shh-N in conditioned medium; experiment: cell-based or functional assay; remark: listed apart in the source
[5] = target: T2, Shh-N in conditioned medium; experiment: cell-based or functional assay; remark: listed apart in the source
[6] = target: T2, Shh-N in conditioned medium; experiment: cell-based or functional assay; remark: listed apart in the source
[7] = target: T2, Shh-N in conditioned medium; experiment: ELISA, apparent KD, purified antibody on immobilized Shh-CM
Description: (§1) The binding of purified antibodies to recombinant human Shh was determined using an ELISA-based method. The N-terminal signaling domain of Shh, Shh-N, was presented in two forms: as a purified protein isolated from bacteria lacking lipid modifications and as a constituent of conditioned medium in a form that contains the N-terminal palmitoyl modification but lacks the C-terminal cholesterol moiety.
(§2) The plates were sealed and placed on a shaker overnight at 5° C. The next day, the plates were washed 4 times with PBS with 0.05% Tween 20 (PBS-T). […] The plates were washed four times with PBS-T. Titrations of purified antibody (half log serial dilutions over at least six logs with a starting concentration of 30 μg/mL) were made in 100 μl PBS-T and added into wells and incubated with shaking overnight at 4° C. Antibody controls included human IgG2 and IgG4 (Sigma-Aldrich, Cat, #I5404 and #I4639, respectively). […] Following washing with PBS-T, the chemiluminescent Peroxidase substrate (Sigma cat# CPS-2-60) was added at room temperature and incubated for ten minutes with the plate covered by foil. Each well was read for 100 msec in the Spectromax 5e to determine RLU.

[8] = target: T3, Recombinant Human Sonic Hedgehog C24II amino terminal peptide (R&D Systems cat#1845-SH) (human, UniProt Q15465 24-197); experiment: ELISA, apparent KD, purified antibody on immobilized Shh C24II
T3 construct: domain: amino terminal peptide; bought; also called Shh-C24II; C24II peptide
Description: as §1, §2

biotinylated human Shh = target: T4, biotinylated human Shh (human, UniProt Q15465 24-197, limits assumed, biotinylated); experiment: ELISA, hybridoma supernatant on neutravidin-captured biotin-Shh
T4 construct: also called biotin-Shh; immobilized biotinylated Shh
Description: After blocking with 1% milk in PBS, 40 μl of 500 ng/ml biotinylated Shh in 1×PBS, 1% milk (wt/vol) was added to each well and incubated for 1 hr at RT. Hybridoma supernatants (10 μl/well) were added to 40 μl of 1% milk, 0.05% Tween-20 in PBS per well and incubated 1 hr at RT. Following washing and incubation with secondary antibody (100 ng/ml goat-anti-human IgG Fc HRP), wells were developed with TMB substrate and subsequently quenched with 1 N HCl.

[9] = target: T1, full length human Shh expressed on the …; experiment: FMAT, hybridoma supernatant on 293T cells transiently expressing human Shh
Description: Cells were maintained at 1×10⁶ cells/ml overnight at 37° C., 5% CO₂. […] Supernatants were added to each well (10 μl/well) and incubated 1.5 hrs at RT. […] Plates were read on the FMAT 8100 HTS system from Applied Biosystems. Total signal (FL1×count) is defined as the number of positive cells in a well (count) multiplied by the average fluorescence intensity of the positive cells (FL1).

[10] = target: T1, full length human Shh expressed on the …; experiment: flow cytometry, exhaust hybridoma supernatant 1:10, 293T cells transiently expressing human Shh
Description: Finally, binding of antibody in exhaust hybridoma supernatants to native Shh was assessed using flow cytometry. […] Transfected or parental cells were seeded into the plates with V-bottom wells (50,000 cells/well). Exhaust supernatants (50 μl of a 1:10 dilution) were added to each well and incubated at 4° C. for 1 hr. […] It was added to a concentration of 2 μg/ml in a volume of 50 μl. Cells were washed and 50 μl of a 2 μg/ml solution of secondary antibody (Cy5-labeled goat-anti-human IgG or Cy5-labeled goat-anti-rabbit IgG) were added to each well. 7AAD was added to a concentration of 5 μg/ml and the mixture was incubated for 30 min at RT. The mean fluorescence for each sample was then determined using flow cytometry.

[11] = target: T2, Shh-N in conditioned medium; experiment: SPR (Biacore T100), recombinant IgG2 mAb amine-coupled to CM5, Shh as analyte, 1:1 model
Description: (§3) The binding affinity of four purified recombinant antibodies expressed in a human IgG2 constant domain background was measured by high resolution Biacore. All experiments were performed using a Biacore T100 instrument at 23° C. […] All mAbs were covalently coupled to a CM5 biosensor chip using routine amine coupling chemistry. […] For experiments with Shh-containing conditioned media (CM), a 1.5 mL aliquot was centrifuged for 10 minutes at 13,200 rpm. […] Shh samples were randomly injected in triplicate with several buffer inject cycles interspersed for double referencing. All sensorgram data were processed using Scrubber and fit to a 1:1 interaction model (including a term kₘ for mass transport) using CLAMP.

[12] = target: T3, Recombinant Human Sonic Hedgehog C24II …; experiment: as above
Description: as §3

[13] = target: T1, full length human Shh expressed on the …; experiment: flow cytometry, recombinant hIgG2 on CAOV3 cells stably over-expressing full length Shh; 95% CI ±32.4 pM
[14] = target: T5, Recombinant Human Desert Hedgehog C23II, amino terminal peptide (R&D Systems cat#4777-HH) (human, UniProt O43323 23-198); experiment: ELISA, immobilized human Dhh, antibody 30 µg/ml to 1 pg/ml
T5 construct: domain: amino terminal peptide; bought; also called Human Dhh
Description: The plates were washed four times with PBS-T. Titrations of purified antibody (half log serial dilutions over at least six logs with a starting concentration of 30 μg/mL) were made in 100 μl PBS-T and added into wells and incubated with shaking overnight at 4° C. Antibody controls included human IgG2 and IgG4 (Sigma-Aldrich, Cat, #I5404 and #I4639, respectively). […] Following washing with PBS-T, the chemiluminescent Peroxidase substrate (Sigma cat# CPS-2-60) was added at room temperature and incubated for ten minutes with the plate covered by foil. Each well was read for 100 msec in the Spectromax 5e to determine RLU.
After washing with PBS-T and blocking with 1% BSA, antibody titrations spanning concentrations of 30 μg/ml to 1 pg/ml prepared by half log serial dilution in PBS-T were added to wells and incubated with shaking overnight at 4° C.

[15] = target: T6, Recombinant Human/Mouse Indian Hedgehog C28II, amino terminal peptide (R&D Systems cat#1705-HH/CF) (human/mouse (100% sequence identity in …, UniProt Q14623 28-202)); experiment: ELISA, apparent KD, purified antibody on immobilized human/mouse Ihh
T6 construct: domain: amino terminal peptide; bought; also called Human/mouse Ihh; Ihh-N C28II
Description: as §2

[16] = target: T1, full length human Shh expressed on the …; experiment: flow cytometry, hybridoma-derived hIgG4 on HEK 293 cells stably expressing full length Shh; 95% CI ±40 pM
Description: (§4) The binding affinity of the purified antibodies for full length Shh ectopically expressed on the surface of a pool of stable HEK 293 cells was determined using flow cytometry. […] Antibody was mixed with cells at approximately 74,000 cells/well in a final volume of 300 μl in a polypropylene microtiter plate. The plate was incubated with shaking for 5 hours at 4° C. […] The plates were shaken for 20 minutes at 4° C. The mean fluorescence of 10,000 events was recorded for each sample using FACS Canto II HTS flow cytometry instrumentation. A plot of the mean fluorescence as a function of antibody concentration was fit nonlinearly with Scientist 3.0 software to estimate KD.

[17] = target: T1, full length human Shh expressed on the …; experiment: flow cytometry, recombinant hIgG2 on CAOV3 cells stably over-expressing full length Shh; 95% CI ±19.4 pM
[18] = target: T2, Shh-N in conditioned medium; experiment: SPR (Biacore T100), recombinant IgG2 mAb amine-coupled to CM5, Shh as analyte, 1:1 model; KD only an estimate
Description: as §3

[19] = target: T3, Recombinant Human Sonic Hedgehog C24II …; experiment: as above
Description: as §3

[20] = target: T1, full length human Shh expressed on the …; experiment: flow cytometry, recombinant hIgG2 on CAOV3 cells stably over-expressing full length Shh; 95% CI ±460 pM
[21] = target: T1, full length human Shh expressed on the …; experiment: flow cytometry, hybridoma-derived hIgG4 on HEK 293 cells stably expressing full length Shh; 95% CI ±141 pM
Description: as §4

[22] = target: T1, full length human Shh expressed on the …; experiment: flow cytometry, recombinant hIgG2 on CAOV3 cells stably over-expressing full length Shh; 95% CI ±30.4 pM

% Inh of Gli1 reporter, Co-Culture N = 1 [1] [%]	% Inh of Gli1 reporter, Co-Culture N = 2 [1] [%]	% Inh of Gli1 reporter, CM N = 1 [2] [%]	% Inh of Gli1 reporter, CM N = 3 [2] [%]	% Inhibition of Gli1 reporter, Co-Culture N = 1, 20 µg/ml [3] [%]	% Inhibition of Gli1 reporter, Co-Culture N = 2, 20 µg/ml [3] [%]	% Inhibition of Gli1 reporter, Conditioned Media N = 1, 20 µg/ml [4] [%]	% Inhibition of Gli1 reporter, Conditioned Media N = 2, 20 µg/ml [4] [%]	IC50, inhibition of osteoblast differentiation (alkaline phosphatase) of C3H10T1/2 cells [5] [nM]	Kd [7] [nM]	Kd [8] [nM]	FL1 X COUNT [9]	X Geo Mean (Transients) [10]	Kd [11] [nM]	Kd [12] [nM]	Binder	further results
42	39	33	47	44	55	50	61	5.7	0.03	0.061	585000	188	–	–	1G1 (antibody, V domains shown, fully human XenoMouse hybridoma antibody; also called MAb 1G1) VH: EVQLVESGGGLVKPGGSLRLSCAASGFTFSSYSMNWVRQAPGKGLEWVSSFSSSSSYIYYADSVKGRFTISRDNAKNSLYLQMNSLRAEDTAVYYCARDRGDYVDYYYGMDVWGQGTTVTVSS VL: SYELTQPPSVSVSPGQTASITCSGDKLDYKYICWYQQKPGQSPVLVIYQDIKRPSGIPERFSGSNSGNTATLTISGTQAMDEADYYCQAWDSNTPLVFGGGTKLTVL	% Inhibition of Gli1 reporter, Co-Culture N = 3, 20 µg/ml [3]: 19%; IC50, inhibition of endogenous mouse Gli1 mRNA (qRT-PCR) in C3H10T1/2 cells [6]: 7.7 nM; IC50, inhibition of endogenous mouse Ptc1 mRNA (qRT-PCR) in C3H10T1/2 cells [6]: 8.7 nM; OD450 (biotinylated human Shh): 4.3 OD450
–	–	–	–	–	–	–	–	–	–	–	–	–	0.317	0.377	1G1 recombinant IgG2 (antibody, V domains shown) VH: EVQLVESGGGLVKPGGSLRLSCAASGFTFSSYSMNWVRQAPGKGLEWVSSFSSSSSYIYYADSVKGRFTISRDNAKNSLYLQMNSLRAEDTAVYYCARDRGDYVDYYYGMDVWGQGTTVTVSS VL: SYELTQPPSVSVSPGQTASITCSGDKLDYKYICWYQQKPGQSPVLVIYQDIKRPSGIPERFSGSNSGNTATLTISGTQAMDEADYYCQAWDSNTPLVFGGGTKLTVL	Kd [13]: 0.0465 nM
46	22	-8	-1	80	68	89	111	5.3	0.06	0.047	661000	313	–	–	6D7 (antibody, V domains shown, fully human XenoMouse hybridoma antibody; also called MAb 6D7) VH: QVQLQESGPGLVKPSQTLSLTCTVSGGSINSGGFYWSWIRQHPGKNLEWIGSIYYSGNTYYNPSLKSRVTISVDTSKNQFSLKLTSVTAADTAVYYCARGNDSGDYDWYFDLWGRGTLVTVSS VL: SYELTQPPSVSVSPGQTASITCSGEKLGYKYVCWYQQKPGQSPVLVIFHDNKRPSGIPERFSGSNSGNTATLTISGAQAMDEADYYCQAGDSSAVFGGGTKLTVL	IC50, inhibition of endogenous mouse Gli1 mRNA (qRT-PCR) in C3H10T1/2 cells [6]: 11.7 nM; IC50, inhibition of endogenous mouse Ptc1 mRNA (qRT-PCR) in C3H10T1/2 cells [6]: 8.2 nM; binding result [14]: no binding; Kd [15]: 0.052 nM; Kd [16]: 0.107 nM
–	–	–	–	–	–	–	–	–	–	–	–	–	–	–	6D7 recombinant IgG2 (antibody, V domains shown) VH: QVQLQESGPGLVKPSQTLSLTCTVSGGSINSGGFYWSWIRQHPGKNLEWIGSIYYSGNTYYNPSLKSRVTISVDTSKNQFSLKLTSVTAADTAVYYCARGNDSGDYDWYFDLWGRGTLVTVSS VL: SYELTQPPSVSVSPGQTASITCSGEKLGYKYVCWYQQKPGQSPVLVIFHDNKRPSGIPERFSGSNSGNTATLTISGAQAMDEADYYCQAGDSSAVFGGGTKLTVL	Kd [17]: 0.0371 nM; Kd [18]: 0.0034 nM; Kd [19]: 0.0135 nM
–	–	–	–	–	–	–	–	–	–	–	–	–	4.31	4.3	1H8 recombinant IgG2 (antibody, V domains shown, also called 1H8 hIgG2) VH: QVQLQESGPGLVKPSETLSLTCTVSGGSISSYYWTWIRQPPGKGLEWIGYIYYSGSTNYNPSLKSRVTISVDTSKNQFSLKLSSVTAADTAVYYCARDRLLYGMDVWGQGTTVTVSS VL: not shown	koff [11]: 0.00289 s⁻¹; kon [11]: 671000 M⁻¹ s⁻¹; koff [12]: 0.00209 s⁻¹; kon [12]: 486000 M⁻¹ s⁻¹; Kd [20]: 1.52 nM
35	32	21	-24	73	87	37	44	3.4	0.331	0.069	497000	148	–	–	3H8 (antibody, V domains shown, fully human XenoMouse hybridoma antibody; also called MAb 3H8) VH: QVQLVESGGGVVQPGRSLRLSCAASGFTFSTYGMHWVRQAPGKGLEWVAVIWYDGSNKYYADSVKGRFTISRDNSKNTLNLQMNSLRAEDTAVYYCARDLYYYGSGSPFDYWGQGTLVTVSS VL: EIVMTQSPATLSVSPGERATLSCRASQSVSSNLAWYQQKPGQAPRLLIFGVSIRATGIPARFSGSGSGTEFTLTISSLQSEDFAVYYCQQYNNWPRPGFGGGTKVEIK	binding result [14]: no binding; OD450 (biotinylated human Shh): 3.81 OD450; Kd [21]: 0.25 nM
–	–	–	–	–	–	–	–	–	–	–	–	–	0.0056	0.0267	3H8 recombinant IgG2 (antibody, V domains shown) VH: QVQLVESGGGVVQPGRSLRLSCAASGFTFSTYGMHWVRQAPGKGLEWVAVIWYDGSNKYYADSVKGRFTISRDNSKNTLNLQMNSLRAEDTAVYYCARDLYYYGSGSPFDYWGQGTLVTVSS VL: EIVMTQSPATLSVSPGERATLSCRASQSVSSNLAWYQQKPGQAPRLLIFGVSIRATGIPARFSGSGSGTEFTLTISSLQSEDFAVYYCQQYNNWPRPGFGGGTKVEIK	Kd [22]: 0.0682 nM
